Test results taken from patent US20190359697A1 (Scripps Research, published 2019).
Residue numbers refer to the chain shown, from its start. Names and notes keep the numbering of the source.

T1: CD19 (UniProt P15391 20-556, limits assumed)
T1 sequence (looked up): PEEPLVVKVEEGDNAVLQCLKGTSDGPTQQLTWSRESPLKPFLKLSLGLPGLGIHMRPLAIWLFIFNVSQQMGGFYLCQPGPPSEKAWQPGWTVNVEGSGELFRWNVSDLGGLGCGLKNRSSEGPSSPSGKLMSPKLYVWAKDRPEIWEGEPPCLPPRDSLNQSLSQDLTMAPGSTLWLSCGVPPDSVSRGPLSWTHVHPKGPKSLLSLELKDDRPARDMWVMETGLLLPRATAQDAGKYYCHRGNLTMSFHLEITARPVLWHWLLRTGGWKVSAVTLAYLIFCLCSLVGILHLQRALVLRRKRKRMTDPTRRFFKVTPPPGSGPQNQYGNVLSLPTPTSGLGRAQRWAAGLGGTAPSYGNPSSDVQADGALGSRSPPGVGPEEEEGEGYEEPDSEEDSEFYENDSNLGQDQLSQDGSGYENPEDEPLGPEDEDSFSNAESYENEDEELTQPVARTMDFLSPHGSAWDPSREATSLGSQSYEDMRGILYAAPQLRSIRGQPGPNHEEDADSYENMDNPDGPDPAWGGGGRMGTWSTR

T2: CD19 (UniProt P15391 20-556)
T2 chain: T1 sequence (looked up)

B1: hFMCL2b/H4c(Q1E-V20L)-WT (antibody, V domains shown)
VH: EVQLQESGPGLVKPSETLSLTCTVSGVSLPDYGVSWIRQPPGKGLEWLGVIWGSETTYYNSALKSRLTISKDNSKNQVSLKMSSLTAADTAVYYCAKHYYYGGSYAMDYWGQGTLVTVSS
VL: DIQMTQSPSSLSASVGDRVTITCRASQDISKYLNWYQQKPGKAVKLLIYHTSRLHSGVPSRFSGSGSGTDYTLTISSLQPEDFATYFCQQGATLPYTFGQGTKLEIK
B2: hFMCL2b/H4c-x-(Q1E)-WT (antibody, V domains shown)
VH: B1 VH with L48I, L67V, V78F, M82L, L85V
VL: B1 VL
B3: hFMCL2/H4a WT (antibody, V domains shown)
VH: B1 VH with E1Q, L20V, S61P, A62S, N73T
VL: B1 VL with V44P, F87Y
B4: hFMCL2/H3 WT (antibody, V domains shown)
VH: B1 VH with E1Q, L20V, S61P, A62S, K97R
VL: B1 VL with V44P, F87Y
B5: hFMCL2/H2 WT (antibody, V domains shown)
VH: B1 VH with E1Q, L20V, S61P, A62S, N73T, K97R
VL: B1 VL with V44P, F87Y
B6: hFMCL2a-LCNT/hFMCH4b (Fab, V domains shown)
VH: B1 VH with E1Q, L20V, S61P, A62S
VL: B1 VL with F87Y
B7: hFMCL2b(V44L)/H4c(Q1E)-WT (antibody, V domains shown)
VH: B1 VH with L20V
VL: B1 VL with V44L
B8: hFMCL2b-LCNT/hFMCH4b (Fab, V domains shown)
VH: B1 VH with E1Q, L20V, S61P, A62S
VL: B1 VL
B9: hFMCL2b(A92N)-LCNT/hFMCH4c(Q1E) (Fab, V domains shown)
VH: B1 VH with L20V
VL: B1 VL with A92N
B10: hFMCL2b/H4c(Q1E)-WT (antibody, V domains shown)
VH: B1 VH with L20V
VL: B1 VL
B11: hFMCL2b/H4b-x-(Q1E)-WT (antibody, V domains shown)
VH: B1 VH with L48I, S61P, A62S, L67V, V78F, M82L, L85V
VL: B1 VL
B12: hFMCL2-LCNT/hFMCH4c (Fab, V domains shown)
VH: B1 VH with E1Q, L20V
VL: B1 VL with V44P, F87Y
B13: hFMCL2c-LCNT/hFMCH4b (Fab, V domains shown)
VH: B1 VH with E1Q, L20V, S61P, A62S
VL: B1 VL
B14: hFMCL2b/H4b(Q1E-V20L)-WT (antibody, V domains shown)
VH: B1 VH with S61P, A62S
VL: B1 VL
B15: hFMCL2-LCNT/hFMCH4b (Fab, V domains shown)
VH: B1 VH with E1Q, L20V, S61P, A62S
VL: B1 VL with V44P, F87Y
B16: hFMCL2b/H4b(Q1E)-WT (antibody, V domains shown)
VH: B1 VH with L20V, S61P, A62S
VL: B1 VL
B17: hFMCL2/H4b WT (antibody, V domains shown)
VH: B1 VH with E1Q, L20V, S61P, A62S
VL: B1 VL with V44P, F87Y
B18: hFMCL2/H4b wt (antibody, V domains shown)
VH: B1 VH with E1Q, L20V, S61P, A62S
VL: B1 VL with V44P, F87Y

target: T1, CD19; experiment: cell-based or functional assay

In order of rising “EC50 of cytotoxicity (LDH), sCAR-T cells + switch vs CD19+ RS4;11, Average of the repeat assays” value:
1. B13  5.18 pM
2. B8  6.21 pM
3. B6  6.8 pM
4. B7  7.45 pM
5. B10  9.51 pM
6. B9  9.92 pM
7. B14  9.96 pM
8. B16  11.3 pM
9. B1  13 pM
10. B15  15.6 pM
11. B12  18 pM
12. B3  40.7 pM
13. B2  44.2 pM
14. B11  53.8 pM
15. B5  84.3 pM
16. B4  87.6 pM

In order of falling “EC50 of cytotoxicity (LDH), sCAR-T cells + switch vs CD19+ RS4;11, assay DTR-5-15 (PBMC)” value:
1. B5  141 pM
2. B4  139 pM
3. B3  43.2 pM
4. B11  29.6 pM
5. B2  28.3 pM
6. B15  21.4 pM
7. B12  16.6 pM
8. B6  10.4 pM
9. B14  9.63 pM
10. B9  8.73 pM
11. B1  7.52 pM
12. B16  7.15 pM
13. B10  7.1 pM
14. B8  5.17 pM
15. B13  4.04 pM
16. B7  2.04 pM

In order of rising “EC50 of cytotoxicity (LDH), sCAR-T cells + switch vs CD19+ RS4;11, assay DTR-5-16 (CD4:CD8)” value:
1. B13  3.25 pM
2. B8  5.78 pM
3. B6  6.03 pM
4. B15  7.43 pM
5. B7  8.45 pM
6. B9  9.19 pM
7. B10  9.41 pM
8. B16  10.5 pM
9. B14  13.1 pM
10. B1  15.3 pM
11. B12  16 pM
12. B3  50.7 pM
13. B4  77.1 pM
14. B11  77.6 pM
15. B5  79 pM
16. B2  81.8 pM

In order of falling “EC50 of cytotoxicity (LDH), sCAR-T cells + switch vs CD19+ RS4;11, assay DTR-5-50 (PBMC)” value:
1. B4  61.4 pM
2. B11  43.8 pM
3. B5  38.6 pM
4. B3  28.3 pM
5. B15  18.7 pM
6. B2  15.1 pM
7. B1  14.4 pM
8. B12  9.2 pM
9. B10  8.25 pM
10. B14  7.48 pM
11. B7  7.01 pM
12. B16  6.97 pM
13. B9  6.55 pM
14. B6  5.29 pM
15. B8  3.93 pM
16. B13  3.78 pM

In order of rising “EC50 of cytotoxicity (LDH), sCAR-T cells + switch vs CD19+ RS4;11, assay DTR-5-51 (CD4:CD8)” value:
1. B6  5.45 pM
2. B14  9.6 pM
3. B13  9.65 pM
4. B8  9.96 pM
5. B7  12.3 pM
6. B10  13.3 pM
7. B15  14.6 pM
8. B1  14.8 pM
9. B9  15.2 pM
10. B16  20.7 pM
11. B12  30.1 pM
12. B3  40.7 pM
13. B2  51.5 pM
14. B11  63.9 pM
15. B4  72.6 pM
16. B5  78.5 pM

Target: T2, CD19
Experiment: flow

In order of falling EC50:
1. B2  16.9 nM
2. B11  1.87 nM
3. B7  1.72 nM
4. B1  1.18 nM
5. B16  0.987 nM
6. B14  0.875 nM
7. B10  0.809 nM

Target: T2, CD19
Experiment: flow cytometry cell binding; FIG. 6

In order of falling EC50:
1. B6  1.61 nM
2. B13  1.39 nM
3. B8  1.22 nM

Target: T2, CD19
Experiment: flow cytometry cell binding; FIG. 7

In order of falling EC50:
1. B17  5.38 nM
2. B6  2.43 nM
3. B8  2.27 nM
4. B13  1.68 nM

Target: T2, CD19
Experiment: flow cytometry cell binding; FIG. 8

In the case of B18, the EC50 is reported as 3.84 nM.

Target: T2, CD19
Experiment: flow cytometry cell binding; FIG. 5; WT switch (no PNE)

In order of rising EC50:
1. B17  4.13 nM
2. B3  6.65 nM
3. B4  23.9 nM
4. B5  45.6 nM
